From patent publication US20250002588A1 (DIAGONAL THERAPEUTICS, published 2025)
Residue numbers refer to the chain shown, from its start.

B1: DGL898 (bispecific antibody)
chain 1: not shown
chain 2: EVQLLESGGGLVQPGGSLRLSCAASGFTFSDYWMTWIRQAPGKGLEWVSSISGGSTYYADSRKGRFTISRDNSENTLYLQMNSLRAEDTAVYYCARDFGVAGWFGQYGMDVWGQGTLVTVSSGGGGSGGGGSGGGGSQSVLTQPPSASGTPGQRVTISCTGSSSNIGAGYDVHWYQQLPGTAPKLLIYRSNQRPSGVPDRFSGSKSGTSASLAISGLRSEDEADYYCSSYAGNYNLVFGGGTKLTVLDKTHTCPPCPAPEAAGAPSVFLFPPKPKDTLMISRTPEVTCVVVDVSHEDPEVKFNWYVDGVEVHNAKTKPREEQYNSTYRVVSVLTVLHQDWLNGKEYKCKVSNKALPAPIEKTISKAKGQPREPQVCTLPPSRDELTKNQVSLSCAVKGFYPSDIAVEWESNGQPENNYKTTPPVLDSDGSFFLVSKLTVDKSRWQQGNVFSCSVMHEALHNHYTQKSLSLSPGWSHPQFEK
B2: DGL914 (bispecific antibody)
chain 1: not shown
chain 2: B1 chain 2 with W33Y, T35N, R62V, Q106Y
B3: DGL902 (bispecific antibody)
chain 1: not shown
chain 2: B1 chain 2
B4: DGL900 (bispecific antibody)
chain 1: not shown
chain 2: B1 chain 2 with S55T, A101S
B5: DGL912 (bispecific antibody)
chain 1: not shown
chain 2: B1 chain 2 with W33Y, T35N, R62V, Y107F
B6: DGL906 (bispecific antibody)
chain 1: not shown
chain 2: B1 chain 2 with Y32S, W33Y, T35S, R62V, W103Y
B7: DGL905 (bispecific antibody)
chain 1: not shown
chain 2: B1 chain 2 with W33Y, T35N, R62V, Y107F
B8: DGL904 (bispecific antibody)
chain 1: not shown
chain 2: B1 chain 2 with S55T, A101S
B9: DGL899 (bispecific antibody)
chain 1: not shown
chain 2: B1 chain 2 with W33Y, S55T
B10: DGL909 (bispecific antibody)
chain 1: not shown
chain 2: B1 chain 2
B11: DGL901 (bispecific antibody)
chain 1: not shown
chain 2: B1 chain 2 with W33Y, A101S
B12: DGL915 (bispecific antibody)
chain 1: not shown
chain 2: B1 chain 2 with W33Y, A101S
B13: DGL911 (bispecific antibody)
chain 1: not shown
chain 2: B1 chain 2 with S55T, A101S
B14: DGL910 (bispecific antibody)
chain 1: not shown
chain 2: B1 chain 2 with W33Y, S55T
B15: DGL907 (bispecific antibody)
chain 1: not shown
chain 2: B1 chain 2 with W33Y, T35N, R62V, Q106Y
B16: DGL908 (bispecific antibody)
chain 1: not shown
chain 2: B1 chain 2 with W33Y, A101S
B17: DGL913 (bispecific antibody)
chain 1: not shown
chain 2: B1 chain 2 with Y32S, W33Y, T35S, R62V, W103Y
B18: DGL903 (bispecific antibody)
chain 1: not shown
chain 2: B1 chain 2 with W33Y, S55T

Target: ALK-1/BMPR-2 receptor pair of the PathHunter U2Os dimerization cells (DiscoverX 93-0962C3) (UniProt P37023 22-503; Q13873 27-1038)
Sequence (P37023 22-503, one chain of several): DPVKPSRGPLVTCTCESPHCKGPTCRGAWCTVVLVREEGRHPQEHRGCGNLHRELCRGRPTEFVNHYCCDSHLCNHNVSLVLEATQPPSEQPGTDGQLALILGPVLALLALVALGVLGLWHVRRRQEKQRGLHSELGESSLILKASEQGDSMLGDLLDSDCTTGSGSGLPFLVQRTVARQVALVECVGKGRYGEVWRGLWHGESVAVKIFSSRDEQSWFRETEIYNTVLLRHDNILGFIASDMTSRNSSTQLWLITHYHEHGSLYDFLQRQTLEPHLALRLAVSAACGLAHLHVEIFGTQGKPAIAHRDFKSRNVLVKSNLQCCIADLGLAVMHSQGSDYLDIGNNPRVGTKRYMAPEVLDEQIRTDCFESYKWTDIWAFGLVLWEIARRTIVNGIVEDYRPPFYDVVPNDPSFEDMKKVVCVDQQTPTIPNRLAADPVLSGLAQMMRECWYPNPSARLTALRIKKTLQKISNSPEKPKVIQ
Test: cell-based or functional assay

Binder	% Emax BMP9 [%]	Emax (RLU)
B1	19	509000
B2	20	557000
B3	19	529000
B4	12	333000
B5	33	910000
B6	-2	-41100
B7	36	972000
B8	17	475000
B9	30	812000
B10	24	663000
B11	29	800000
B12	5	124000
B13	19	521000
B14	49	1.33e+06
B15	12	321000
B16	45	1.23e+06
B17	0	8420
B18	34	918000
